Reference: patent publication US20090081760A1, “DMO METHODS AND COMPOSITIONS” (priority 2007, published 2009)
Where a chain is given by its changes, count along the chain named. In names and notes the source's numbering stands.

Tests used:
[1] = biological target: the molecule itself; experiment: X-ray crystal structure (homotrimer in the asymmetric unit)
Dicamba = experiment: LC-MS/MS screen for oxygenase (DMO) activity: E. coli liquid culture expressing ddmC or a variant, grown with dicamba, DCSA detected in supernatant; format: cell-based; details: for Changed to: M % of control for set / Changed to: M DCSA values (ppm): residue changed to M; for Changed to: C % of control for set / Changed to: C DCSA values (ppm): residue changed to C; for Changed to: I % of control for set / Changed to: I DCSA values (ppm): residue changed to I
Description: An LC-MS/MS screen for oxygenase activity was used to detect DCSA. The method comprises a two stage process made up of a liquid cell culture assay coupled to an LC-MS/MS detection screen. In the liquid cell culture stage, the gene of interest, i.e. ddmC or a variant thereof, was cloned under the control of a promoter (e.g. T7 promoter, pET vector) and transformed into an E. coli host cell. […] Cells were spun down, and the supernatant was filtered and diluted tenfold with the inclusion of 8 μM salicylic acid as an internal standard. Samples of the supernatant, and/or optionally the cell pellet (or lysate thereof), from this first stage were analyzed for DCSA levels (i.e. DMO activity level) by LC-MS/MS.
While many oxygenases such as DMO are multi component systems requiring other helper enzymes for activity, it was observed that components in E. coli may substitute for these helper enzymes or functions. Thus, transformation of E. coli with a single “oxygenase” gene from a multi component system nevertheless results in measurable activity for the gene alone, even without other components being co-transformed into the same E. coli cell. Activity is observed because, in E. coli cells, surrogates with homology to the original helper enzymes (e.g. ferredoxin and reductase) may be utilized. Additionally, E. coli can take up substrate (e.g. dicamba) and excrete the product (e.g. DCSA) into the media supernatant, allowing for the speed and simplicity of this cell based screen. No lysis of cells is required. Alternatively, an HPLC-based assay for DMO activity may be utilized. Promising variants were used as templates for additional rounds DOT and or other mutagenesis methods in an iterative manner. […]
Sets of saturation mutagenesis primers (using NNS degenerate triplets) for 31 residues at the active site and involved in the electron transfer chain as indicated in Table 28 were designed and used to introduce mutations into the ddmC gene by means of terminated PCR on the template (ddmC gene with His tag and two changes, T2S+I123L (SEQ ID NO:23) in pMV4 vector (Modular Genetics, Cambridge, Mass.). Resulting PCR products were treated with DpnI to remove the parental template molecules, self-annealed and transformed into chemically competent E. coli Top10 F′ (Invitrogen, Carlsbad, Calif.). Standard DNA cloning methods were utilized (e.g. Sambrook et al., 1989). The individual colonies were grown in liquid culture. DNA was isolated by a standard miniprep procedure and used to transform the chemically competent E. coli (e.g. BL21(DE3)). […] Cells were spun down, and the supernatant was filtered and diluted tenfold with 8 μM salicylic acid as an internal standard. The DCSA levels (i.e. DMO activity level) were determined by LC-MS analysis as described above (e.g. Example 8).
Additional single substitution variants of DMO at residues corresponding to interaction (e.g. subunit interface) domains and the ferredoxin binding site were also prepared and assayed for their effect on enzymatic activity (See also Examples 8A, 8B) by the LC/MS screen. In most cases shown in Table 29, one conservative and one neutral substitution was tried at a given residue.
Table 30 lists DMO activity data (by LC/MS screen) for 58 variants relative to ddmC_M—6his (the wild type ddmC sequence with an N-terminal His tag (SEQ ID NO: 154), while Table 31 lists DMO activity data (by LC/MS screen) for 1685 variants relative to ddmC_RLE6his (the wild type ddmC sequence with T2S and I123L mutations (SEQ ID NO:23), and a C-terminal 6×His tag). The numbering of residues is based on the numbering found in SEQ ID NO:2 or SEQ ID NO:3.

[2] = DCSA relative to control average of the data set

B1: dicamba monooxygenase (DMO) (enzyme)
chain: MATFVRNAWYVAALPEELSEKPLGRTILDTPLALYRQPDGVVAALLDICPHRFAPLSDGILVNGHLQCPYHGLEFDGGGQCVHNPHGNGARPASLNVRSFPVVERDALIWIWPGDPALADPGAIPDFGCRVDPAYRTVGGYGHVDCNYKLLVDNLMDLGHAQYVHRANAQTDAFDRLEREVIVGDGEIQALMKIPGGTPSVLMAKFLRGANTPVDAWNDIRWNKVSAMLNFIAVAPEGTPKEQSIHSRGTHILTPETEASCHYFFGSSRNFGIDDPEMDGVLRSWQAQALVKEDKVVVEAIERRRAYVEANGIRPAMLSCDEAAVRVSREIEKLEQLEAARLEHHHHHH
notes: also called DMOw; DdmC
**Q.** Does B1 bind [1]?
**A.** Result: binds

B2: G266S: DMO variant from NNS mutagenesis, more active than the control (protein)
chain: B1 chain with W112C, G266S
**Q.** Which “DMO activity of NNS mutagenesis variants (in words)” value (Dicamba; NNS saturation mutagenesis variants, 200 to 500 μM Dicamba, 30 hrs, 37° C.) does the source give for B2 here?
**A.** Its value is “more active than the control”.

**Q.** And the “Changed to: S % of control for set” value (Dicamba; residue changed to S, DCSA relative to control average of the data set)?
**A.** The value was 130.25%.

**Q.** What about the “Changed to: S DCSA values (ppm)” value (Dicamba; residue changed to S, mean +/− SD (n)) of the same molecule?
**A.** Its value is 34.63 +/− 4.14 (4) ppm.

B3: A287M: DMO substitution variant (protein)
chain: B1 chain with W112C, A287M
**Q.** Which results are given for B3?
**A.** Changed to: M % of control for set (Dicamba; [2]): 149.32%; Changed to: M DCSA values (ppm) (Dicamba; mean +/− SD (n)): 39.7 +/− 5.86 (4) ppm

B4: R248C: DMO substitution variant (protein)
chain: B1 chain with W112C, R248C
**Q.** How did the “Changed to: C % of control for set” value (Dicamba; [2]) turn out when B4 was run?
**A.** Its value is 132.69%.

**Q.** And the “Changed to: C DCSA values (ppm)” value (Dicamba; mean +/− SD (n))?
**A.** The value was 35.28 +/− 12.15 (4) ppm.

B5: A287C: DMO substitution variant (protein)
chain: B1 chain with W112C, A287C
**Q.** For B5, which “Changed to: C % of control for set” value (Dicamba; [2]) is on record?
**A.** The value was 109.56%.

**Q.** And the “Changed to: C DCSA values (ppm)” value (Dicamba; mean +/− SD (n))?
**A.** The value was 29.13 +/− 5.46 (4) ppm.

B6: A287E: DMO substitution variant (protein)
chain: B1 chain with W112C, A287E
**Q.** Which results are given for B6?
**A.** Changed to: E % of control for set (Dicamba; residue changed to E, DCSA relative to control average of the data set): 113.40%; Changed to: E DCSA values (ppm) (Dicamba; residue changed to E, mean +/− SD (n)): 30.15 +/− 2.76 (4) ppm

B7: A169M: DMO substitution variant (protein)
chain: B1 chain with W112C, A169M
**Q.** B7 was tested. Which “Changed to: M % of control for set” value (Dicamba; [2]) did it give?
**A.** Its value is 108.70%.

**Q.** And the “Changed to: M DCSA values (ppm)” value (Dicamba; mean +/− SD (n))?
**A.** Its value is 28.9 +/− 5.06 (4) ppm.

B8: N218H: DMO substitution variant (protein)
chain: B1 chain with W112C, N218H
**Q.** For B8, which “Changed to: H % of control for set” value (Dicamba; residue changed to H, DCSA relative to control average of the data set) is on record?
**A.** The value was 104.38%.

**Q.** And the “Changed to: H DCSA values (ppm)” value (Dicamba; residue changed to H, mean +/− SD (n))?
**A.** The value was 39.9 +/− 9.75 (4) ppm.

B9: N218M: DMO substitution variant (protein)
chain: B1 chain with W112C, N218M
**Q.** What does the source list for B9?
**A.** Changed to: M % of control for set (Dicamba; [2]): 106.92%; Changed to: M DCSA values (ppm) (Dicamba; mean +/− SD (n)): 40.87 +/− 0.62 (2) ppm

B10: R248I: DMO substitution variant (protein)
chain: B1 chain with W112C, R248I
**Q.** How did the “Changed to: I % of control for set” value (Dicamba; [2]) turn out when B10 was run?
**A.** Its value is 146.23%.

**Q.** What about the “Changed to: I DCSA values (ppm)” value (Dicamba; mean +/− SD (n)) of the same molecule?
**A.** Its value is 38.88 +/− 3.93 (4) ppm.

B11: R248K: DMO substitution variant (protein)
chain: B1 chain with W112C, R248K
**Q.** With B11 as the molecule, how does the “Changed to: K % of control for set” value (Dicamba; residue changed to K, DCSA relative to control average of the data set) read?
**A.** The value was 155.15%.

**Q.** And the “Changed to: K DCSA values (ppm)” value (Dicamba; residue changed to K, mean +/− SD (n))?
**A.** The value was 41.25 +/− 4.05 (4) ppm.

B12: R248L: DMO substitution variant (protein)
chain: B1 chain with W112C, R248L
**Q.** Which results are given for B12?
**A.** Changed to: L % of control for set (Dicamba; residue changed to L, DCSA relative to control average of the data set): 153.00%; Changed to: L DCSA values (ppm) (Dicamba; residue changed to L, mean +/− SD (n)): 40.68 +/− 10.77 (4) ppm

B13: R248M: DMO substitution variant (protein)
chain: B1 chain with W112C, R248M
**Q.** How did the “Changed to: M % of control for set” value (Dicamba; [2]) turn out when B13 was run?
**A.** Its value is 128.37%.

**Q.** What about the “Changed to: M DCSA values (ppm)” value (Dicamba; mean +/− SD (n)) of the same molecule?
**A.** Its value is 34.13 +/− 3.09 (4) ppm.

B14: L282I: DMO substitution variant (protein)
chain: B1 chain with W112C, L282I
**Q.** How did the “Changed to: I % of control for set” value (Dicamba; [2]) turn out when B14 was run?
**A.** Its value is 116.03%.

**Q.** And the “Changed to: I DCSA values (ppm)” value (Dicamba; mean +/− SD (n))?
**A.** Its value is 44.35 +/− 1.22 (4) ppm.

B15: Control: control (wild type) DMO of the Table 29 LC/MS screen (protein, UniProt Q5S3I3 2-339, looked up)
Dicamba O-demethylase, …: TFVRNAWYVAALPEELSEKPLGRTILDTPLALYRQPDGVVAALLDICPHRFAPLSDGILVNGHLQCPYHGLEFDGGGQCVHNPHGNGARPASLNVRSFPVVERDALIWIWPGDPALADPGAIPDFGCRVDPAYRTVGGYGHVDCNYKLLVDNLMDLGHAQYVHRANAQTDAFDRLEREVIVGDGEIQALMKIPGGTPSVLMAKFLRGANTPVDAWNDIRWNKVSAMLNFIAVAPEGTPKEQSIHSRGTHILTPETEASCHYFFGSSRNFGIDDPEMDGVLRSWQAQALVKEDKVVVEAIERRRAYVEANGIRPAMLSCDEAAVRVSREIEKLEQLEAA
**Q.** For B15, which “Control DCSA Produced (ppm) Set 1 average (±SD)” value (Dicamba; Set 1 average) is on record?
**A.** Its value is 38.22 ± 7.81 ppm.

**Q.** And the “Control DCSA Produced (ppm) Set 2 average (±SD)” value (Dicamba; Set 2 average)?
**A.** Its value is 26.59 ± 4.96 ppm.

**Q.** What about the “Control DCSA Produced (ppm) Set 3 average (±SD)” value (Dicamba; Set 3 average) of the same molecule?
**A.** The value was 38.00 ± 6.87 ppm.
